From the RNAGym collection of RNA variant scans (doi:10.7554/elife.80360) come the findings set out here.

B1: CPEB3 Ribozyme (parent)
chain: GGGGGCCACAGCAGAAGCGUUCACGUCGCGGCCCCUGUCAGAUUCUGGUGAAUCUGCGAAUUCUGCUGU

The variants in this data set derive from B1. In words: self-cleavage, relative activity (ratio to wild type); higher = more cleavage; co-transcriptional.
Consider GGGGGCCACAGCAGAAGCGUUCACGUCGCGGGCCCUGUCAGAUUCUGGUGAAUCUGCGAAGUCUGCUGU [C32G U61G], for which the self-cleavage was determined as 0.342.
In the case of GGGGGCCACAGCAGAAGCGUUCACGUCGCGGGCCCUGUCAGAUUCUGGUGAAUCUGCGAACUCUGCUGU [C32G U61C], the self-cleavage worked out at 0.285.
With GGGGGCCACAGCAGAAGCGUUCACGUCGCGGUCCCUGUCAGAUUCUGGUGAAUCUGCGAAUUCUUCUGU [C32U G65U], the self-cleavage amounted to 0.806.
With GGGGGCCACAGCAGAAGCGUUCACGUCGCGGUCCCUGUCAGAUUCUGGUGAAUCUGCCAAUUCUGCUGU [C32U G58C], the self-cleavage came out at 0.963.
Regarding GGGGGCCACAGCAGAAGCGUUCACGUCGCGGUCCCUGUCAGAUUCUGGUGAAUCUGCUAAUUCUGCUGU [C32U G58U], the self-cleavage is 0.995.
Regarding GGGGGCCACAGCAGAAGCGUUCACGUCGCGGUCCCUGUAAGAUUCUGGUGAAUCUGCGAAUUCUGCUGU [C32U C39A], the self-cleavage came out at 0.915.
For GGGGGCCACAGCAGAAGCGUUCACGUCGCGGUCCCUGUGAGAUUCUGGUGAAUCUGCGAAUUCUGCUGU [C32U C39G], the self-cleavage is 0.996.
Turning to GGGGGCCACAGCAGAAGCGUUCACGUCGCGGGCCCUGUCAGAUUCUGGUGAAUCUGCUAAUUCUGCUGU [C32G G58U], the self-cleavage stood at 0.622.
Turning to GGGGGCCACAGCAGAAGCGUUCACGUCGCGGGCCCUGUCAGAUUCUGGUGAAUCUGCCAAUUCUGCUGU [C32G G58C], the self-cleavage turned out to be 0.478.
Next, GGGGGCCACAGCAGAAGCGUUCACGUCGCGGGCCCUGUCAGAUUCUGGUAAAUCUGCGAAUUCUGCUGU [C32G G50A]: 0.554.
Next, GGGGGCCACAGCAGAAGCGUUCACGUCGCGGGCCCUGUCAGAUUCUGGUGAAUCUGCGCAUUCUGCUGU [C32G A59C]: 0.243; GGGGGCCACAGCAGAAGCGUUCACGUCGCGGUCCCUGUCAGAUUCUGGUGUAUCUGCGAAUUCUGCUGU [C32U A51U]: 0.982; GGGGGCCACAGCAGAAGCGUUCACGUCGCGGUCCCUGUCAGAUUCUGGUGGAUCUGCGAAUUCUGCUGU [C32U A51G]: 1.
For GGGGGCCACAGCAGAAGCGUUCACGUCGCGGUGCCUGUCAGAUUCUGGUGAAUCUGCGAAUUCUGCUGU [C32U C33G], the self-cleavage was 0.374.
Turning to GGGGGCCACAGCAGAAGCGUUCACGUCGCGGGCCCUGUCAGAUUCUGGUGAAUCUGCGAAUUCUGCUGA [C32G U69A], the self-cleavage turned out to be 0.709.
Next, GGGGGCCACAGCAGAAGCGUUCACGUCGCGGGCCCUGUCAGAUUCUGGUGAAUCUGCGAAUUCUGCUGG [C32G U69G]: 0.775; GGGGGCCACAGCAGAAGCGUUCACGUCGCGGUCCCUGUCAGAUUCUGGUGAAUCUGCGACUUCUGCUGU [C32U A60C]: 0.363.
In the case of GGGGGCCACAGCAGAAGCGUUCACGUCGCGGUCCCUGUCAGAUUCUGGUGAAUCUGCGAUUUCUGCUGU [C32U A60U], the self-cleavage turned out to be 0.478.
In the case of GGGGGCCACAGCAGAAGCGUUCACGUCGCGGGCCCUGUCAGAUUCUGGUGAAUCUGCGAAUUGUGCUGU [C32G C63G], the self-cleavage worked out at 0.233.
GGGGGCCACAGCAGAAGCGUUCACGUCGCGGGCCCUGUCAGAUUCUGGUGAAUCUGCGAAUUUUGCUGU [C32G C63U]: the self-cleavage worked out at 0.358.
With GGGGGCCACAGCAGAAGCGUUCACGUCGCGGUCCCUGUCAGAUUCUGGUGAAUCUGAGAAUUCUGCUGU [C32U C57A], the self-cleavage came out at 0.339.
Take GGGGGCCACAGCAGAAGCGUUCACGUCGCGGUCCCUGUCAGAUUCUGAUGAAUCUGCGAAUUCUGCUGU [C32U G48A]: the self-cleavage is 1.
For the variant GGGGGCCACAGCAGAAGCGUUCACGUCGCGGUCCCUGUCAGAUUCUGUUGAAUCUGCGAAUUCUGCUGU [C32U G48U], the self-cleavage was found to be 0.964.
In the case of GGGGGCCACAGCAGAAGCGUUCACGUCGCGGUCCCUGUCAGAUUCUGCUGAAUCUGCGAAUUCUGCUGU [C32U G48C], the self-cleavage is 0.984.
For GGGGGCCACAGCAGAAGCGUUCACGUCGCGGUCCCUGUCAGAUUCUAGUGAAUCUGCGAAUUCUGCUGU [C32U G47A], the self-cleavage is 0.971.
Consider GGGGGCCACAGCAGAAGCGUUCACGUCGCGGUCCCUGUCAGAUUCUCGUGAAUCUGCGAAUUCUGCUGU [C32U G47C], for which the self-cleavage stood at 0.97.
Next, GGGGGCCACAGCAGAAGCGUUCACGUCGCGGGCCUUGUCAGAUUCUGGUGAAUCUGCGAAUUCUGCUGU [C32G C35U]: 0.377; GGGGGCCACAGCAGAAGCGUUCACGUCGCGGUCCCUGUCAGAUUCUGGUGAAUCUGCGAAUUGUGCUGU [C32U C63G]: 0.933.
Consider GGGGGCCACAGCAGAAGCGUUCACGUCGCGGGCCCUGUCAGAUUCUGGGGAAUCUGCGAAUUCUGCUGU [C32G U49G], for which the self-cleavage amounted to 0.371.
Next, GGGGGCCACAGCAGAAGCGUUCACGUCGCGGGCCCUGUCAGAUUCUGGUGAAUCUGCGAAUUCUUCUGU [C32G G65U]: 0.267; GGGGGCCACAGCAGAAGCGUUCACGUCGCGGGCCCUGUGAGAUUCUGGUGAAUCUGCGAAUUCUGCUGU [C32G C39G]: 0.389; GGGGGCCACAGCAGAAGCGUUCACGUCGCGGGCCCUGUAAGAUUCUGGUGAAUCUGCGAAUUCUGCUGU [C32G C39A]: 0.282.
Take GGGGGCCACAGCAGAAGCGUUCACGUCGCGGGCCCUGUCAGAUUCUGGUGAAUCUACGAAUUCUGCUGU [C32G G56A]: the self-cleavage came out at 0.354.
Take GGGGGCCACAGCAGAAGCGUUCACGUCGCGGGCCCUGUCAGAUUCUGGUGAAUCUCCGAAUUCUGCUGU [C32G G56C]: the self-cleavage is 0.218.
Regarding GGGGGCCACAGCAGAAGCGUUCACGUCGCGGGCCCUGUCAGAUUCUGGUGAAUCUUCGAAUUCUGCUGU [C32G G56U], the self-cleavage came out at 0.308.
On to GGGGGCCACAGCAGAAGCGUUCACGUCGCGGUCCCCGUCAGAUUCUGGUGAAUCUGCGAAUUCUGCUGU [C32U U36C], for which the self-cleavage worked out at 0.973.
Take GGGGGCCACAGCAGAAGCGUUCACGUCGCGGUCCCAGUCAGAUUCUGGUGAAUCUGCGAAUUCUGCUGU [C32U U36A]: the self-cleavage worked out at 0.216.
Take GGGGGCCACAGCAGAAGCGUUCACGUCGCGGUCCCUGUCAGAUUCUGGUGAAUCUCCGAAUUCUGCUGU [C32U G56C]: the self-cleavage came out at 0.858.
On to GGGGGCCACAGCAGAAGCGUUCACGUCGCGGGCCCUGUCAGAUUCUGGUGAUUCUGCGAAUUCUGCUGU [C32G A52U], for which the self-cleavage was determined as 0.48.
